# B1: LINE1-full (parent)
# chain: UACGUAGGUGGUUUUCCCCUGAUAGUGCUAAGGGGGCCUGGAAGUUUGGACUGGGCAGAGCUCAACACAGCGUGGCAAAGUGGCUGUGGCUAGACUGCCUCUCUGGAUUCCUCGUCACUCAGCAGGGCAUCUCUGAGAGAAAUGCC
# Variants of: B1
# Assay: self-cleavage, relative activity (ratio to wild type); higher = more cleavage; in vitro, sequencing; the parent is a self-cleaving ribozyme
row,Variant,self-cleavage
1,A31U U102C,1.05
2,U52G A67G,0.64
3,U12G G139A,0.95
4,U46A A59G,0.07
5,G139A A141G,1.58
6,U91A A136G,0.36
7,A2G U29G,1.09
8,U85C A142U,0.21
9,U52C A117G,1.04
10,C56A U96A,0.03
11,G74A A138G,1.26
12,U130C A136G,1.66
13,U26A G137A,1.53
14,U9C U130A,1.16
15,U12A C16A,0.97
16,A43G U91A,0.89
17,G82A A129G,2.28
18,A129U C133A,1.26
19,G40U U102C,1
20,A50G A117U,0.91
21,C63A U130C,0.05
22,A24G U26A,0.84
23,A42G A69U,0.04
24,G48A,1.28

row,Variant,self-cleavage
1,C110G A141G,1.37
2,U100A A140G,0.76
3,U12C A117G,1.84
4,G40A C131U,0.76
5,U15C C51U,1.26
6,A43U U47A,1.44
7,A64U A142G,0.47
8,C17G A141G,0.47
9,A59U U81C,0.87
10,U14G A117G,0.39
11,G40U U85C,0.13
12,G7A A129G,1.85
13,A59G C118U,0.02
14,U47A A57U,0.08
15,G105U A140U,1.53
16,G83U U119A,0.65
17,A65U C99U,0.1
18,C101U A107G,1.73
19,U29A A64U,0.25
20,U62G A67G,0.09
21,U1C U85A,0.03
22,C19U G74A,1.12
23,U62C A129U,0.01
24,U46C G72U,1.35

row,Variant,self-cleavage
1,A77U A140U,1.23
2,G21U U91C,0.45
3,U20C C123U,0.91
4,A30U G33A,1.23
5,A2G U91C,0.45
6,A107C G114A,1.74
7,U14A G36U,1.12
8,U14C A136U,1.42
9,U100C U130G,1.02
10,A24U G93A,0.06
11,A43U U102C,0.25
12,U20A A59U,0.7
13,A24U U39A,0.84
14,A57G G125A,0.52
15,U13C G127U,1.36
16,G105A U134C,1.44
17,U108A C133A,1.42
18,A50U U85C,0.14
19,A2G U20A,0.37
20,A30C A67C,0.21
21,U26C U108G,2.12
22,A117U A121G,1.81
23,U9C A78U,2.65
24,A6G A43U,0.85

row,Variant,self-cleavage
1,A92U U119C,0.87
2,U143A C145U,1.39
3,C76A U102C,1.39
4,A2G G44U,0.87
5,U85G A138U,0
6,A43G A141G,1.29
7,A22U G114A,1.44
8,U81A A121U,1.7
9,C19U C51U,1.01
10,U23C C118U,1.81
11,A6G A140U,0.77
12,U5G U12C,0.77
13,A42C G97C,0.11
14,U73C U119C,2.11
15,U9C C116G,1.21
16,A30G G135A,1.4
17,G34C A77U,1.18
18,A67U U91C,0.05
19,U119C U132G,2.83
20,A43C G105U,1.53
21,U52A C113A,1.24
22,U45C A140G,1.41
23,A2G U96A,0.22
24,G49A A67G,0.56

row,Variant,self-cleavage
1,C19G A42G,1.41
2,U9A U134A,1.17
3,A65G U85G,0.07
4,U29A A121C,0.84
5,U39C U45G,1.17
6,G8A U9C,0.63
7,U45C A138C,1.44
8,A124C A141G,1.71
9,G127A U130C,1.31
10,A78G A94G,0.49
11,G8U U29C,1.99
12,A59U A138U,0.88
13,U23C U62C,0.04
14,A117G A136G,1.66
15,U9C G21U,1.37
16,G48A A124G,0.92
17,U62A G83A,0.05
18,A30G U47A,1.57
19,U45G A140G,1.33
20,U52A A141C,1.48
21,G4A A141G,0.89
22,A78G U109C,1.38
23,U62A G93U,0.03
24,A24G U109A,2.43

row,Variant,self-cleavage
1,A67G A78U,0.65
2,G8A C113A,1.31
3,U14C U112G,1.75
4,U39A,1.34
5,A42G C101A,0.95
6,U102C U112G,1.15
7,U14A A69U,0.06
8,G126A A140G,1.49
9,U23C A138G,1.95
10,U115C U119A,1.78
11,U12C C146U,1.63
12,A117C G139A,1.65
13,A2U A50G,0.53
14,U46C U85A,0.14
15,G36C A117G,1.51
16,U5A U45C,1
17,A42G C71G,0.35
18,G36A U73A,1.84
19,U23A U47C,1.88
20,G40A A94U,0.26
21,G88A A121G,0.06
22,G27A G36C,1.24
23,U29C C146U,1.02
24,G86A G127C,0.09

row,Variant,self-cleavage
1,U1C U102A,0.25
2,A59G A129G,0.07
3,G88A C146U,0.07
4,A59U U134C,0.92
5,C38U U62A,0.02
6,G25A U91C,0
7,C68U U104A,0.03
8,U9G U100A,0.86
9,G97A U130C,0.19
10,G53C U96C,0.09
11,G8U U9A,2.01
12,U47A A136U,1.48
13,U47G C111U,1.62
14,U39C U73C,2.09
15,G8U C128U,1.14
16,U104A A117U,1.31
17,U20C A59G,0.11
18,G60A A129U,0.02
19,G41U C145U,0.75
20,U104A A129G,1.27
21,U12G U87A,0.09
22,U20C C103A,1.49
23,C61A U81C,0.04

# Reference: the RNAGym collection of RNA variant scans (doi:10.7554/elife.90254)
